{"source": "paper PMC9668162", "target": "PAM1.4 Fab (human) (UniProt P01834)", "assay": "ELISA"}
{"substance": "recombinant full-length VAR2CSA (variant FCR3), full ectodomain (domain or fragment)", "values": [{"measurement": "Kd", "result": 12, "unit": "nM"}]}
